Measured values taken from patent US8227193 (University of California, dated 2012).

Molecular target: T1, human p52 DNA-binding domain (p52 DBD) (human, UniProt Q00653 1-340)
T1 construct: Expressed in E. coli from pET11a, without a poly-His tag; also called p52 RHD; NF-kB2/p52 Rel homology domain
T1 sequence: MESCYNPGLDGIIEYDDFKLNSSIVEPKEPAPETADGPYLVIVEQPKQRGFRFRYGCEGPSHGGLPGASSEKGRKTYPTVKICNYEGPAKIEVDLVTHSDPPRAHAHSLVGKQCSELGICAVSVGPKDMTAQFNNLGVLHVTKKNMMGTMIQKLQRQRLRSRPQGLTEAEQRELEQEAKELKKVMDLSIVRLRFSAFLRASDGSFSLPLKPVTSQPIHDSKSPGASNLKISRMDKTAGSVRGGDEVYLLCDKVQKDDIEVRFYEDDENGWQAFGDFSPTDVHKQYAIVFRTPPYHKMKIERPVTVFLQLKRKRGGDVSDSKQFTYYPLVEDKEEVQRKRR
Assay: co-refolding from 7 M urea (1:1.2 molar ratio), Ni-affinity capture through the His tag of RelB DBD (uncomplexed p52 DBD flows through), size exclusion; both proteins confirmed by western blotting
Protocol: His-RelB DBD and p52 DBD that had been purified as described above were mixed together in 1:1.2 molar ratio (i.e., with excess p52 DBD) and diluted to ~0.4 mg/ml concentration in a denaturing buffer B (7 M urea, 0.5 M NaCl, 20 mM Tris pH 7.5, 5 mM DTT, 10% glycerol). The denatured protein mixture (100 ml total volume that contained 40 mg total protein) was refolded by slowly removing urea by dialysis. The sample was subjected to dialysis against 2 L buffer C (buffer C was the same as buffer B except it lacked urea) for 6 hours. The dialysis step was repeated two more times. After dialysis, the refolded heterodimer was loaded onto the Ni-affinity column. Excess, uncomplexed p52 DBD flows through the column because it has no poly-His tag to bind Ni-affinity matrix. The heterodimer was eluted with imidazole. The eluate was concentrated and further purified using size exclusion chromatography (Superdex 200, Pharmacia). Fractions containing the heterodimer were pooled and concentrated. The presence of both proteins was confirmed by standard western blotting.

binding result: binds
B1: poly histidine tagged murine RelB DNA-binding domain (His-RelB DBD) (other)
chain: MPSRRAARESAPELGALGSSDLSSLSLTVSRTTDELEIIDEYIKENGFGLVGTQLSEMPRLVPRGPASLSSVTLGPAAPPPPATPSWSCTLGRLVSPGPCPRPYLVITEQPKQRGMRFRYECEGRSAGSILGESSTEASKTQPAIELRDCGGLREVEVTACLVWKDWPHRVHPHSLVGKDCTDGVCRVRLRPHVSPRHSFNNLGIQCVRKKEIEAAIERKIQLGIDPYNAGSLKNHQEVDMNVVRICFQASYRDQQGHLHRMDPILSEPVYDKKSTNTSELRICRINKESGPCTGGEELYLLCDKVQKEDISVVFSTASWEGRADFSQADVHRQIAIVFKTPPYEDLEISEPVTVNVFLQRLTDGVCSEPLPFTYLPRDHDSYGVDKKRKRGLPDVLGEL
notes: Expressed in E. coli from pET15b as a poly histidine fusion protein; also called RelB RHD; RelB Rel homology domain; not shown: poly-histidine tag from vector pET15b (Novagen)
